Laboratory results as given in the supplement of paper PMC9732359.
± gives the uncertainty stated by the source.

Assay: protein stability index of a GFP-peptide fusion (yeast GPS) (PSI 1-4); higher = more stable; sorted into four equal gates, so the index is relative within each strain
In short: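 For each peptide, the protein stability index sums the read frequency in every gate after multiplying it by the gate number. Read frequencies came from plasmids that were PCR-amplified from each gate and Illumina-sequenced, with reads assigned to strains by barcodes. The gates were four equal bins of GFP/Cherry fluorescence ratio applied to mid-log yeast in leucine-free medium carrying a pooled library of tiled 17-residue yeast protein peptides fused downstream of GFP on a Cherry-expressing plasmid.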

Sequence | protein stability index (doa10∆) | protein stability index (pdr5∆) | protein stability index (san1∆) | protein stability index (ubr1∆)
RITNSFYSTNSQYFKFK [RPN9] | 2.5 ± 0.1 | 2.38 ± 0.076 | 2.42 ± 0.086 | 2.83 ± 0.16
RKALPKEPKKLLPNSKN [DSN1] | 2.55 ± 0.063 | 2.69 ± 0.071 | 2.69 ± 0.084 | 2.87 ± 0.05
RKAYFTAPSSERRVLLS [RPL26B] | 1.45 ± 0.041 | 1.7 ± 0.051 | 2.49 ± 0.066 | 1.66 ± 0.045
RKAYFTAPSSQRRVLLS [RPL26A] | 2.44 ± 0.055 | 2.14 ± 0.056 | 2.54 ± 0.054 | 1.74 ± 0.047
RKCCNHPYLFEGAEPGP [ISW2] | 3.06 ± 0.064 | 3.11 ± 0.067 | 3.11 ± 0.05 | 3.2 ± 0.052
RKFKSRRCDDMLYYIQN [POP4] | 2.74 ± 0.069 | 2.98 ± 0.088 | 2.81 ± 0.062 | 2.85 ± 0.048
RKGGPATAEKLPNIYPS [RPT2] | 2.89 ± 0.13 | 3.54 ± 0.25 | 2.81 ± 0.13 | –
RKHRNAQFAGRASIEYY [DIS3] | 2.99 ± 0.13 | 3.11 ± 0.072 | 2.8 ± 0.13 | 2.99 ± 0.094
RKILESSNIVNENDSQA [YIL149C/MLP2] | – | 2.88 ± 0.14 | 2.89 ± 0.085 | –
RKLEISSRFKHRQEIFK [GAL11] | 2.76 ± 0.064 | 3.1 ± 0.061 | 3.01 ± 0.059 | 3.09 ± 0.051
RKLINYTKKHLSSHSST [RPN4] | 1.34 ± 0.063 | 1.71 ± 0.049 | 1.41 ± 0.088 | 1.28 ± 0.04
RKLMEMENILQRCKSNA [YIL149C/MLP2] | 2.04 ± 0.072 | 2.39 ± 0.086 | 2 ± 0.096 | 1.38 ± 0.095
RKQIQLLKKIIFEKELM [SRB4] | 1.93 ± 0.051 | 2.14 ± 0.047 | 1.86 ± 0.071 | 2.03 ± 0.034
RKRKCGHTNQLRPKKKL [RPL40A] | 2.84 ± 0.035 | 2.95 ± 0.032 | 3.017 ± 0.024 | 3.033 ± 0.026
RKRPVPKGATYGKPTNQ [RPL15A] | – | 3.29 ± 0.19 | 3.58 ± 0.19 | 3.45 ± 0.14
RKVRTKKWKKYWQYKAG [SWP82] | 2.47 ± 0.089 | 2.17 ± 0.12 | 2.83 ± 0.12 | 2.04 ± 0.058
RKVSGPRALQPSQFGML [RET1] | 2.36 ± 0.089 | 1.67 ± 0.059 | 2.46 ± 0.12 | 2.56 ± 0.09
RLAPLIKEENDMENMAD [ARP7] | 3.75 ± 0.23 | 3.65 ± 0.15 | 2.88 ± 0.14 | –
RLASEPGIISITSLQDS [YMR129W/POM152] | 2.94 ± 0.1 | 2.34 ± 0.077 | 2.96 ± 0.083 | 1.82 ± 0.051
RLEFDQDRDRFFLRDTL [SNF5] | 3.07 ± 0.061 | 3.38 ± 0.065 | 3.06 ± 0.048 | 3.4 ± 0.061
RLELAGQLISLLFEDLF [RET1] | 2.65 ± 0.092 | 2.9 ± 0.12 | 2.67 ± 0.082 | 2.91 ± 0.075
RLFIKPGQKMSLFSHRK [BRN1] | 2.74 ± 0.14 | 3.06 ± 0.11 | 3.07 ± 0.13 | 3.02 ± 0.12
RLGGDDLRIRIKLDIVV [SNF5] | 1.35 ± 0.16 | 1.33 ± 0.097 | 1.54 ± 0.13 | 1.29 ± 0.099
RLHYYPKDPSNVETYEQ [BRR2] | 3.02 ± 0.11 | 3.11 ± 0.23 | 3.01 ± 0.24 | –
RLIDSMKQYSYLMDSKN [RRI1] | 2.62 ± 0.21 | 2.41 ± 0.14 | – | 2.87 ± 0.18

Sequence | protein stability index (doa10∆) | protein stability index (pdr5∆) | protein stability index (san1∆) | protein stability index (ubr1∆)
RLNTVTRVHQLMLEDAV [MCD1] | 3.32 ± 0.21 | 1.62 ± 0.06 | 1.69 ± 0.21 | 2.32 ± 0.095
RLQAANSMEYTGKITKM [CDC53] | 2.99 ± 0.12 | 2.62 ± 0.14 | 2.52 ± 0.094 | 2.73 ± 0.064
RLQGIKLLDNIQEYQLC [COR1] | 2.46 ± 0.13 | 2.24 ± 0.092 | 2.06 ± 0.13 | 2.34 ± 0.063
RLRQFNLQPISTPENVP [SMC4] | 1.69 ± 0.081 | 1.76 ± 0.067 | 1.61 ± 0.14 | 1.73 ± 0.052
RLTAKRLIEHDPVEGNL [SRP14] | 2 ± 0.066 | 2.29 ± 0.052 | 1.93 ± 0.1 | 2.16 ± 0.045
RMLEEAIDHLKAELEKQ [YIL149C/MLP2] | 3.25 ± 0.056 | 3.21 ± 0.063 | 3.32 ± 0.073 | 3.12 ± 0.053
RMLSFEDISKATHLPKD [RPN9] | 2.95 ± 0.091 | 3.08 ± 0.08 | 3.15 ± 0.096 | 3.02 ± 0.055
RNILHNTVPQVTNFNST [SRB5] | 1.95 ± 0.056 | 2.87 ± 0.05 | 1.92 ± 0.052 | 2.44 ± 0.035
RNKSAANNDINSLLSNF [YDL088C/ASM4] | 2.94 ± 0.15 | 3.07 ± 0.095 | 2.99 ± 0.091 | 3.02 ± 0.056
RNNVANKQPRNESFNRR [YAR002W/NUP60] | 3.04 ± 0.088 | 3.41 ± 0.18 | 2.31 ± 0.12 | 3.24 ± 0.14
RNQILVSITDAPKIHIL [YMR129W/POM152] | 1.43 ± 0.041 | 1.35 ± 0.036 | 1.26 ± 0.057 | 1.61 ± 0.038
RNRDIALFQPPNFDWDL [ROX3] | 3.12 ± 0.096 | 3.33 ± 0.12 | 3.17 ± 0.11 | 2.98 ± 0.11
RNTMMIQCQIDKLYIHF [RGR1] | 1.98 ± 0.051 | 2.15 ± 0.061 | 2.08 ± 0.069 | 2.19 ± 0.041
RNVLSASLDGTIRLWEC [RPN14] | 2.95 ± 0.068 | 3.09 ± 0.073 | 3.14 ± 0.042 | 2.82 ± 0.043
RPDLIKEDHPLEFYKDK [SIR3] | 3.17 ± 0.07 | 3.23 ± 0.055 | 3.21 ± 0.039 | 3.08 ± 0.074
RPFDSFGKLLQAYQFLN [ITC1] | 1.44 ± 0.047 | 1.58 ± 0.058 | 1.48 ± 0.077 | 1.64 ± 0.053
RPSFQNNRISNANEISA [SWP82] | 2.22 ± 0.043 | 2.29 ± 0.047 | 1.99 ± 0.082 | 2.47 ± 0.054
RQFVSNVRSVIRSSRSR [RPP1] | 3.08 ± 0.063 | 3.08 ± 0.071 | 2.91 ± 0.064 | 3.09 ± 0.06
RQLTSLGSKKELGISLE [SNU114] | 3 ± 0.072 | 3.17 ± 0.079 | 3.14 ± 0.097 | 3.36 ± 0.062
RQNRRPELGDKFSSRHG [RET1] | – | 3.4 ± 0.3 | – | 2.63 ± 0.21
RQQYYSGVQVGGVGSMG [SNF6] | 2.08 ± 0.068 | 2.44 ± 0.11 | 2.19 ± 0.094 | 2.24 ± 0.056
RRADVKTATVKINKKLN [RPL38] | 1.83 ± 0.058 | 1.84 ± 0.041 | 2.17 ± 0.086 | 1.62 ± 0.039
RRFKNGFQTGSASKASA [RPL37A] | 2.99 ± 0.053 | 2.98 ± 0.056 | 3.06 ± 0.067 | 2.88 ± 0.043
RRFYKNWYKSKKKAFTK [RPL3] | 2.98 ± 0.16 | 2.8 ± 0.11 | 1.6 ± 0.2 | 1.78 ± 0.08
RRIIQNAQQTFHIDHTK [RPO21] | 2.81 ± 0.061 | 2.89 ± 0.061 | 3 ± 0.062 | 2.89 ± 0.066

Sequence | protein stability index (doa10∆) | protein stability index (pdr5∆) | protein stability index (san1∆) | protein stability index (ubr1∆)
RRIPKRMRNRALREMRK [POP1] | 3.26 ± 0.11 | 2.45 ± 0.058 | 3.34 ± 0.078 | 2.88 ± 0.13
RRLDALVEKVYARFKND [ITC1] | 3.29 ± 0.16 | 1.93 ± 0.083 | 2.69 ± 0.078 | 2.29 ± 0.097
RRRDFGAPANKRPRRGL [SMD1] | 2.84 ± 0.094 | 2.93 ± 0.084 | 3.38 ± 0.07 | 3.29 ± 0.089
RRRDGVFLYFEDNAGVI [RPL23A] | 2.68 ± 0.13 | 2.83 ± 0.069 | 2.37 ± 0.11 | 2.9 ± 0.056
RRRLLGPAAAKPMAFSN [MTR3] | 3.06 ± 0.071 | 3.17 ± 0.055 | 3.23 ± 0.057 | 3.21 ± 0.038
RRTNTPIGRDGKLAKPR [RPB2] | 3.08 ± 0.1 | 3.06 ± 0.078 | 2.76 ± 0.084 | 2.96 ± 0.1
RRYDRKQSGFGGQTKPV [RPL42A] | 3.08 ± 0.084 | 3.03 ± 0.066 | 2.88 ± 0.056 | 3.148 ± 0.029
RSEDPAGLGKTNELWAR [YGR119C/NUP57] | 2.82 ± 0.068 | 2.24 ± 0.077 | 3.25 ± 0.075 | 3.4 ± 0.088
RSLATAVATPKAEVTQL [COR1] | 2.99 ± 0.1 | 3.09 ± 0.13 | 2.98 ± 0.092 | 2.89 ± 0.042
RSQDQENPAFLPGTNNN [SEC65] | 2.79 ± 0.082 | 2.75 ± 0.079 | 2.19 ± 0.063 | 2.8 ± 0.064
RSRNGGATKIVREHYLR [DIS3] | 3.21 ± 0.073 | 3.36 ± 0.083 | 3.36 ± 0.081 | 3.2 ± 0.099
RSWNEPSKSQTNFKEEI [YML103C/NUP188] | 2.9 ± 0.12 | 2.98 ± 0.13 | 3.17 ± 0.12 | 3.11 ± 0.075
RSWTLTSEMKVLSIPPA [YGL100W/SEH1] | 2.13 ± 0.054 | 2.18 ± 0.069 | 2.37 ± 0.064 | 2.1 ± 0.072
RTKSQVIEEDYDDEQNT [IRR1] | 2.4 ± 0.071 | 2.83 ± 0.15 | 2.38 ± 0.099 | 1.83 ± 0.16
RTSATREDTPLSQNEST [ISW2] | 2.99 ± 0.072 | 3.16 ± 0.064 | 2.93 ± 0.062 | 2.96 ± 0.05
RTWYESFCGFLLYYIPS [YJR042W/NUP85] | 1.88 ± 0.055 | 1.43 ± 0.047 | 1.58 ± 0.11 | 1.99 ± 0.057
RVGVKLKFNSTEYRGTL [SMX3] | 3.18 ± 0.11 | 3.17 ± 0.07 | 2.87 ± 0.09 | 3.02 ± 0.094
RVKDIHLRKLLDGELDF [RET1] | 2.87 ± 0.06 | 2.93 ± 0.062 | 3.03 ± 0.066 | 3.02 ± 0.041
RVKVHFDQAGKKVSRRN [RPL13A] | 3.46 ± 0.12 | 3.37 ± 0.1 | 3.26 ± 0.12 | 3.31 ± 0.079
RVNNPNVSLIKIEGVAT [RPL33A] | 2.54 ± 0.077 | 2.62 ± 0.062 | 2.38 ± 0.077 | 2.49 ± 0.048
RVVTVDGKLIDISGTMS [SMC4] | – | 3.11 ± 0.19 | 3.35 ± 0.06 | 3.52 ± 0.12
RYLAVTLQDIGFYQIKK [YMR129W/POM152] | 2.53 ± 0.046 | 2.65 ± 0.043 | 2.73 ± 0.068 | 2.62 ± 0.043
RYLTLLSNEFTATNSKG [ECM29] | 2.89 ± 0.073 | 2.76 ± 0.064 | 2.61 ± 0.088 | 2.83 ± 0.052
RYNRAVPDSKIRIYDLG [RPL10] | 2.53 ± 0.092 | 3.04 ± 0.15 | 1.89 ± 0.19 | 2.55 ± 0.1
